Data on one substance can be found in PMC10130768.

One assay has as its target SNF2H (UniProt O60264). Nature of the assay: HA immunoprecipitation and mass spectrometry. To be noted: PC3 cells; average of three independent experiments; parent: est. 35; read off a plot.
The next assay concerns the target DHX9 (UniProt Q08211). Nature of the assay: HA immunoprecipitation and mass spectrometry. As to conditions: PC3 cells; average of three independent experiments; parent: est. 32; read off a plot.
UniProt Q08211, sequence (Q08211 whole entry): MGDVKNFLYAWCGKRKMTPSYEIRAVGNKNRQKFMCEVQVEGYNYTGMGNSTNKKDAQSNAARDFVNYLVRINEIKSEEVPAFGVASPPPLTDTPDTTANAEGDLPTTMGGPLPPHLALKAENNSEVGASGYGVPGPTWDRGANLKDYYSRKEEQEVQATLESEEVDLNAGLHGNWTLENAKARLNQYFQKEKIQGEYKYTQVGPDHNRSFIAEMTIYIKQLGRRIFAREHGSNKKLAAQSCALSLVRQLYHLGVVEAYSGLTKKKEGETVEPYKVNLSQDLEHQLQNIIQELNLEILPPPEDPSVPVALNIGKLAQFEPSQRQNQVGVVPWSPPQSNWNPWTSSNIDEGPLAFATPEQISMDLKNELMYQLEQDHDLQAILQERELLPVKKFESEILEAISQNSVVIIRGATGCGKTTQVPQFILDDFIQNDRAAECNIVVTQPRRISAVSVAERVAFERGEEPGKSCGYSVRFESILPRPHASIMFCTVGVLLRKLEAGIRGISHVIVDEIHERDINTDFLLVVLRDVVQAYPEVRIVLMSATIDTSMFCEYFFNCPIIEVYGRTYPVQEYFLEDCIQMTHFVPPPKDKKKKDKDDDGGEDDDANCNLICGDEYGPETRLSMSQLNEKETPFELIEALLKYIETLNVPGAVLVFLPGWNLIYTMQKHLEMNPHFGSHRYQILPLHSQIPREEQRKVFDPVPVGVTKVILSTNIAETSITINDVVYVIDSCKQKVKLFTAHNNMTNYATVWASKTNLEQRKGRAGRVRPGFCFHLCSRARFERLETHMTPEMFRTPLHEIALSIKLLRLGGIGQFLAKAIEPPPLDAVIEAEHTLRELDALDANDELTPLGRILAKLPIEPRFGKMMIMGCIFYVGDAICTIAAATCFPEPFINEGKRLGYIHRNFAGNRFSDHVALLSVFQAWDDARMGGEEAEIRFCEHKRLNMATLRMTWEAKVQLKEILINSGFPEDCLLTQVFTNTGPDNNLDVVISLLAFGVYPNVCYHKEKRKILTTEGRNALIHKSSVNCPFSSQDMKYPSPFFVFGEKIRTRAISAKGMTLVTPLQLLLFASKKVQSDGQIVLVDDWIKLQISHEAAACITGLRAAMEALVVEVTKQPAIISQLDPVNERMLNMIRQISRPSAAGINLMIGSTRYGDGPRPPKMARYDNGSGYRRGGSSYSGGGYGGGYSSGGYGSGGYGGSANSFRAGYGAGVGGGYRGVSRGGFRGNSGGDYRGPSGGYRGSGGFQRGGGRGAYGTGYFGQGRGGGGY

UniProt O60264, sequence (O60264 whole entry): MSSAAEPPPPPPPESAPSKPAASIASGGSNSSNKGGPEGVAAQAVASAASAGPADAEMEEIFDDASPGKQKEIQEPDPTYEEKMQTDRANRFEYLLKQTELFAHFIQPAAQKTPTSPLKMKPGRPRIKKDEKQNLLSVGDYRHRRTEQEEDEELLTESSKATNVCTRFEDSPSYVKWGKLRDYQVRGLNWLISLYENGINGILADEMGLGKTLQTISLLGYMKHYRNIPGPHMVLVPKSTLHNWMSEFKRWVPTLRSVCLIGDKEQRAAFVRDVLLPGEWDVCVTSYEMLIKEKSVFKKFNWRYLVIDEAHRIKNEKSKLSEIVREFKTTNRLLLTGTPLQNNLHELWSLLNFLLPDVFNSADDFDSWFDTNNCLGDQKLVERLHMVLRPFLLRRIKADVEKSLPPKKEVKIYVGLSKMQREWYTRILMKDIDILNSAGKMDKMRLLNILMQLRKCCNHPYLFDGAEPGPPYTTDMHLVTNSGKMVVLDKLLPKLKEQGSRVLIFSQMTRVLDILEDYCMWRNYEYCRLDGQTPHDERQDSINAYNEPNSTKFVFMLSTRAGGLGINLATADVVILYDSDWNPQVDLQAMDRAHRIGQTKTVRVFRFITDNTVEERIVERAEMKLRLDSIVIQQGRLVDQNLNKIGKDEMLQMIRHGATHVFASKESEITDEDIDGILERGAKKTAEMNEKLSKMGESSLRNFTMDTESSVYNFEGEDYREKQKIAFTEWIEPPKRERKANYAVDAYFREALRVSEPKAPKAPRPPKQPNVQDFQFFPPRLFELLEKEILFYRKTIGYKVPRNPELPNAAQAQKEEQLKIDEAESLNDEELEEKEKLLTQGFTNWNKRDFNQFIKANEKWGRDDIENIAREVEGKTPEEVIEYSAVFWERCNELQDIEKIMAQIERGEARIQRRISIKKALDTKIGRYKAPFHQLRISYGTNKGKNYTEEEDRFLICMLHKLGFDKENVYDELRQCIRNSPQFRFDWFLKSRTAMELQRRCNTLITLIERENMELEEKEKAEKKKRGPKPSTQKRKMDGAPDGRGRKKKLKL

As for “HA-FLAG-tagged mouse WT BAZ2A (from UniProt Q91YE5) W531G; Y532A”, the response (peptides number) with SNF2H turned out to be 32; with DHX9 it was 36.
